Data on 6 molecules can be found in publication PMC7794386, “Mechanism of filament formation in UPA-promoted CARD8 and NLRP1 inflammasomes” (Nature Communications, 2021).

To fix the notation:
B1: ASC^CARD (106-195, W169G)-5xGSS-caspase-1^CARD (1-95, G20K) fusion protein (other)
chain: SAAKPGLHFIDQHRAALIARVTNVEWLLDALYGKVLTDEQYQAVRAEPTNPSKMRKLFSFTPAGNWTCKDLLLQALRESQSYLVEDLERSGSSGSSGSSGSSGSSMADKVLKEKRKLFIRSMGEKTINGLLDELLQTRVLNKEEMEKVKRENATVMDKTRALIDSVIPKGAQACQICITYICEEDSYLAGTLGLSADQTS
notes: ASC (apoptosis-associated speck-like protein containing a CARD), CARD, residues 106-195, type IIa mutant W169G; 5x GSS linker, written out from the printed '5XGSS'; caspase-1, CARD, residues 1-95, type IIb mutant G20K; Four fusion chains form an octamer of CARDs; also called ASC^CARD-caspase-1^CARD octamer; ASC^CARD-caspase-1^CARD fusion protein; source: E. coli BL21 (DE3), purified (Ni-NTA, TEV …)
B2: ASC^CARD (106-195, W169G), as it stands in the fusion m16 (domain or fragment, UniProt Q9ULZ3 106-195, looked up)
chain: SAAKPGLHFIDQHRAALIARVTNVEWLLDALYGKVLTDEQYQAVRAEPTNPSKMRKLFSFTPAGNWTCKDLLLQALRESQSYLVEDLERS
notes: ASC (apoptosis-associated speck-like protein containing a CARD), CARD, residues 106-195, type IIa mutant W169G; Joined on one chain with m18 through a 5x GSS linker; source: E. coli BL21 (DE3), purified as part of the fusion protein m16
B3: CARD8 His-MBP-3C-UPA (S297-P446), uncleaved (domain or fragment, human, UniProt Q9Y2G2-5 297-446, looked up)
chain: SLMGILLRIASGTRLSIPITSNTLIYYHPHPEDIKFHLYLVPSDALLTKAIDDEEDRFHGVRLQTSPPMEPLNFGSSYIVSNSANLKVMPKELKLSYRSPGEIQHFSKFYAGQMKEPIQLEITEKRHGTLVWDTEVKPVDLQLVAASAPP
notes: CARD8, human, UPA S297-P446; numbers count on: T60 isoform, UniProt Q9Y2G2-5; Made by a stop codon in the CARD8 His-MBP-3C-UPA-CARD plasmid; also called oligomeric MBP-UPA protein; source: E. coli BL21 (DE3), purified (amylose resin, Superose 6); not shown: His, N-terminal, kept; MBP, N-terminal, kept
B4: caspase-1^CARD (1-95, G20K), as it stands in the fusion m16 (domain or fragment, UniProt P29466 1-95, looked up)
chain: MADKVLKEKRKLFIRSMGEKTINGLLDELLQTRVLNKEEMEKVKRENATVMDKTRALIDSVIPKGAQACQICITYICEEDSYLAGTLGLSADQTS
notes: caspase-1, CARD, residues 1-95, type IIb mutant G20K; Joined on one chain with m17 through a 5x GSS linker; source: E. coli BL21 (DE3), purified as part of the fusion protein m16
B5: NLRP1 His-MBP-3C-UPA (S1213-P1364), uncleaved (domain or fragment, human, UniProt Q9C000-1 1213-1364, looked up)
chain: SPLGVLLKMIHNALRFIPVTSVVLLYHRVHPEEVTFHLYLIPSDCSIRKAIDDLEMKFQFVRIHKPPPLTPLYMGCRYTVSGSGSGMLEILPKELELCYRSPGEDQLFSEFYVGHLGSGIRLQVKDKKDETLVWEALVKPGDLMPATTLIPP
notes: NLRP1, human, UPA S1213-P1364, isoform 1 (UniProt Q9C000-1); also called oligomeric MBP-UPA protein; source: E. coli BL21 (DE3), purified (amylose resin, Superose 6); not shown: His, N-terminal, kept; MBP, N-terminal, kept

In data set [1] the target is CARD8^CARD (P446-L537, A452C), MBP tag cleaved (human) (UniProt Q9Y2G2). As to the kind of experiment: negative stain EM of filament formation; purified MBP-fused protein cleaved with 3C protease for 3 h at 37 °C at different concentrations (0.1 to 30 µM), then negatively stained with 1% uranyl formate and imaged.
Data set [2] concerns the molecule itself. The data set can be described thus: SEC-MALS; Superdex 200 in 25 mM Tris-HCl pH 8.0, 150 mM NaCl, 2 mM DTT, three-angle light scattering and refractive index detectors, 0.5 mL/min. For orientation: In gel filtration, larger molecules generally elute earlier.
Data set [3] deals with the molecule itself. As to the kind of experiment: cryo-EM structure; ASC^CARD-caspase-1^CARD octamer; 25 mM Tris-HCl pH 8.0, 150 mM NaCl, 2 mM DTT; 3.9 Å map.
The target in data set [4] is B4. Described as above. Particulars: both partners purified.
Data set [5] deals with the molecule itself. As to the kind of experiment: SEC; preparative SEC of amylose-purified His-MBP fusions (Superdex 200 for MBP-CARD, Superose 6 for MBP-UPA and MBP-NLRP1-CT); 25 mM Tris-HCl pH 7.5, 150 mM NaCl, 1 mM TCEP.

“CARD8^CARD (P446-L537, A452C), MBP tag cleaved (from UniProt Q9Y2G2-5 446-537) (domain or fragment)” yielded a minimum concentration required to form filaments in data set [1] of 15 µM.

As for B1, in data set [2], the stoichiometry N (as a rule, a count of units in the complex or per binding partner) was 4.

Consider B2, for which the binding result in data set [3] and in data set [4] was “binds” in each case.

For the molecule B3, in data set [5], the binding result is “binds”.

As to B4, the binding result in data set [3] is “binds”.

With B5, the binding result in data set [5] is recorded as “binds”.
